Experiments:
tumor Granzyme B [1] = target: T1, tumor Granzyme B (Mus musculus, UniProt P04187); assay: SPECT/CT imaging of tumor Granzyme B in MC38 tumor-bearing mice; format: in vivo, C57 mice; settings: 18.5 MBq via tail vein, 0.5 h after injection
T1 construct: from tissue; host or cells: MC38 tumors in living C57 mice
T1 sequence (P04187 21-247): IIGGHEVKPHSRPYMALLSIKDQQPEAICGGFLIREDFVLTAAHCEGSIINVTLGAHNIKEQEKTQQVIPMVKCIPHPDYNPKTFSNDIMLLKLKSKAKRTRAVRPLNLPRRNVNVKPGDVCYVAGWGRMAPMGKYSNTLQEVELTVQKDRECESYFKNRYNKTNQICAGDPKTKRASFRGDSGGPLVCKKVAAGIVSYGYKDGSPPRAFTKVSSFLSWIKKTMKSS
Protocol: SPECT imaging of tumor Granzyme B with a ^99mTc-labeled HYNIC complex. 18.5 MBq of the freshly prepared ^99mTc-labeled HYNIC complex was taken and injected into female C57 mice bearing MC38 tumors in the right axilla via the tail vein. After injection for 0.5 h, the animals were anesthetized with isoflurane for SPECT/CT imaging.

tumor Granzyme B [2] = target: T1, tumor Granzyme B; assay: PET/CT imaging in MC38 tumor-bearing mice, comparison with radiopharmaceuticals with similar structures; format: in vivo, C57 mice; settings: 7.4 MBq via tail vein, 0.5 h after injection, compared with the other three comparative radiopharmaceuticals
Protocol: In order to compare the in vivo nuclear medicine imaging advantages of the Granzyme B-targeting complex of the present invention, three Granzyme B-targeting complexes with similar structures are prepared by a similar synthesis method. All of them were labeled with ^68Ga after DOTA coupling to obtain the corresponding Granzyme B-targeting radioactive compounds. 7.4 MBq of the freshly prepared ^68Ga-labeled complex was taken and injected into female C57 mice bearing MC38 tumors via the tail vein. After injection for 0.5 h, the animals were anesthetized with isoflurane for PET/CT imaging. The result is illustrated in FIG. 11, showing that the ^68Ga-labelled DOTA complex of the present invention had optimal tumor Granzyme B uptake and low normal tissue (e.g. gastrointestinal tract) uptake compared with the other three comparative radiopharmaceuticals.

[3] = target: T2, Granzyme B in MC38 tumors (Mus musculus, UniProt P04187); design: species or system C57 mice; settings: in vivo
T2 construct: from tissue; host or cells: MC38 tumors in living C57 mice
T2 sequence (P04187 21-247): T1 sequence (P04187 21-247)
Protocol: (§1) MC38 and 4T1 tumor cells were inoculated subcutaneously in the right axilla of C57 and BALB/c mice, respectively, to establish immunotherapy pseudo-progression and true-progression mouse models. 200 μg of the anti-PD-1 antibody and anti-CTLA-4 antibody were injected intraperitoneally for a total of 3 times on days 0, 3 and 6, respectively. […] After injection for 0.5 h, the animals were anesthetized with isoflurane for PET/CT imaging. The changes of the tumor size in MC38 and 4T1 tumor-bearing mice were measured by a vernier caliper.

Granzyme B in 4T1 tumors = target: T3, Granzyme B in 4T1 tumors (Mus musculus, UniProt P04187); design: species or system BALB/c mice; settings: in vivo
T3 construct: from tissue; host or cells: 4T1 tumors in living BALB/c mice
T3 sequence (P04187 21-247): T1 sequence (P04187 21-247)
Protocol: as §1

SMILES	uptake value in MC38 tumors (SPECT) (tumor Granzyme B [1])	normal tissue (e.g. gastrointestinal tract) uptake (tumor Granzyme B [2])	tumor uptake at day 6 versus day 0 [3]	tumor uptake on day 6 versus day 0 (Granzyme B in 4T1 tumors)
CC[C@H](C)[C@H](NC(=O)Cc1cccc(CNC(=O)C[C@H](NC(=O)C[C@H](NC(=O)c2ccc(NN)nc2)C(=O)O)C(=O)O)c1)C(=O)N[C@H]1CCc2cccc3c2N(C1=O)[C@H](C(=O)NCc1cn[nH]n1)C3 [^99mTc-labeled HYNIC complex, metal not drawn]	good uptake value			
CC[C@H](C)[C@H](NC(=O)Cc1cccc(CNC(=O)C[C@H](NC(=O)C[C@H](NC(=O)CN2CCN(CC(=O)O)CCN(CC(=O)O)CCN(CC(=O)O)CC2)C(=O)O)C(=O)O)c1)C(=O)N[C@H]1CCc2cccc3c2N(C1=O)[C@H](C(=O)NCc1cn[nH]n1)C3 [^68Ga-labeled DOTA complex, metal not drawn]		low	significantly higher than that at day 0	no significant difference
